In paper doi:10.1101/2025.06.05.658000 (2025):

Tests used:
Experiment in all cases: ELISA
[1] = target: HLA-DR (DRA1*01:01 / DRB1*13:01), soluble knob-into-hole Fc heterodimer (human)
[2] = target: HLA-DR (DRA1*01:01 / DRB1*04:03), soluble knob-into-hole Fc heterodimer (human)
[3] = target: HLA-DR (DRA1*01:01 / DRB1*13:02), soluble knob-into-hole Fc heterodimer (human)
[4] = target: HLA-DR (DRA1*01:01 / DRB1*12:02), soluble knob-into-hole Fc heterodimer (human)
[5] = target: HLA-DR (DRA1*01:01 / DRB1*04:01), soluble knob-into-hole Fc heterodimer (human)
[6] = target: HLA-DR (DRA1*01:01 / DRB1*04:07), soluble knob-into-hole Fc heterodimer (human)
[7] = target: HLA-DR (DRA1*01:01 / DRB1*14:01), soluble knob-into-hole Fc heterodimer (human)
[8] = target: HLA-DR (DRA1*01:01 / DRB1*04:04), soluble knob-into-hole Fc heterodimer (human)
[9] = target: HLA-DR (DRA1*01:01 / DRB1*11:04), soluble knob-into-hole Fc heterodimer (human)
[10] = target: HLA-DR (DRA1*01:01 / DRB1*01:02), soluble knob-into-hole Fc heterodimer (human)
[11] = target: HLA-DR (DRA1*01:01 / DRB1*15:01), soluble knob-into-hole Fc heterodimer (human)
[12] = target: HLA-DR (DRA1*01:01 / DRB1*11:01), soluble knob-into-hole Fc heterodimer (human)
[13] = target: HLA-DR (DRA1*01:01 / DRB1*04:05), soluble knob-into-hole Fc heterodimer (human)
[14] = target: HLA-DR (DRA1*01:01 / DRB1*14:54), soluble knob-into-hole Fc heterodimer (human)
[15] = target: HLA-DR (DRA1*01:01 / DRB1*09:01), soluble knob-into-hole Fc heterodimer (human)
[16] = target: HLA-DR (DRA1*01:01 / DRB1*15:03), soluble knob-into-hole Fc heterodimer (human)
[17] = target: HLA-DR (DRA1*01:01 / DRB1*07:01), soluble knob-into-hole Fc heterodimer (human)
[18] = target: HLA-DR (DRA1*01:01 / DRB1*01:01), soluble knob-into-hole Fc heterodimer (human)
[19] = target: HLA-DR (DRA1*01:01 / DRB1*16:02), soluble knob-into-hole Fc heterodimer (human)
[20] = target: HLA-DR (DRA1*01:01 / DRB1*04:06), soluble knob-into-hole Fc heterodimer (human)
[21] = target: HLA-DR (DRA1*01:01 / DRB1*12:01), soluble knob-into-hole Fc heterodimer (human)
[22] = target: HLA-DR (DRA1*01:01 / DRB1*15:02), soluble knob-into-hole Fc heterodimer (human)
[23] = target: HLA-DR (DRA1*01:01 / DRB1*10:01), soluble knob-into-hole Fc heterodimer (human)
[24] = target: HLA-DR (DRA1*01:01 / DRB1*03:01), soluble knob-into-hole Fc heterodimer (human)

KPVSKMRMATPLLMQALPM [human CLIP peptide, unlabelled competitor]
Ki [1]: 350 nM
Ki [2]: 5.96 nM
Ki [3]: 4470 nM
Ki [4]: 3.68 nM
Ki [5]: 6.46 nM
Ki [6]: 5.25 nM
Ki [7]: 67 nM
Ki [8]: 7.75 nM
Ki [9]: 2.92 nM
Ki [10]: 5.52 nM
Ki [11]: 6.31 nM
Ki [12]: 25.8 nM
Ki [13]: 41.9 nM
Ki [14]: 9.1 nM
Ki [15]: 11 nM
Ki [16]: 11.1 nM
Ki [17]: 6.87 nM
Ki [18]: 6.04 nM
Ki [19]: 47 nM
Ki [20]: 8.27 nM
Ki [21]: 37.8 nM
Ki [22]: 23.1 nM
Ki [23]: 13.3 nM
Ki [24]: 23.9 nM
